Target: TNF-α (WEHI-13VAR cytotoxicity assay of Example 2)

Substance: cycloalkyne-modified adalimumab Fab′
- IC50 (read off the curve) [lower panel]: 0.5 µg/mL
- IC50 (read off the curve) [upper panel]: 0.3 µg/mL

From patent US20160024226A1
